B2: GST-hRARα(DEF) (pGEX2T-hRARα(DEF), amino acids 153-462) (receptor, human, UniProt P10276 153-462, looked up)
chain: MSKESVRNDRNKKKKEVPKPECSESYTLTPEVGELIEKVRKAHQETFPALCQLGKYTTNNSSEQRVSLDIDLWDKFSELSTKCIIKTVEFAKQLPGFTTLTIADQITLLKAACLDILILRICTRYTPEQDTMTFSDGLTLNRTQMHNAGFGPLTDLVFAFANQLLPLEMDDAETGLLSAICLICGDRQDLEQPDRVDMLQEPLLEALKVYVRKRRPSRPHMFPKMLMKITDLRSISAKGAERVITLKMEIPGSMPPLIQEMLENSEGLDTLSGQPGGGGRDGGGLAPPPGSCSPSLSPSSNRSSPATHSP
notes: range 153-462; Bacterially produced; also called GST-RAR; GST-RARα(DEF); not shown: glutathione-S-transferase (GST) of pGEX2T (Pharmacia)
B3: GST-hERα(DEF) (pGEX2T-hERα(DEF), amino acids 282-595) (receptor, human, UniProt P03372 282-595, looked up)
chain: SAGDMRAANLWPSPLMIKRSKKNSLALSLTADQMVSALLDAEPPILYSEYDPTRPFSEASMMGLLTNLADRELVHMINWAKRVPGFVDLTLHDQVHLLECAWLEILMIGLVWRSMEHPGKLLFAPNLLLDRNQGKCVEGMVEIFDMLLATSSRFRMMNLQGEEFVCLKSIILLNSGVYTFLSSTLKSLEEKDHIHRVLDKITDTLIHLMAKAGLTLQQQHQRLAQLLLILSHIRHMSNKGMEHLYSMKCKNVVPLYDLLLEMLDAHRLHAPTSRGGASVEETDQSHLATAGSTSSHSLQKYYITGEAEGFPATV
notes: range 282-595; Bacterially produced; also used 32P-labelled as Far-Western probe; also called GST-ER; GST-ER(DEF); not shown: glutathione-S-transferase (GST) of pGEX2T (Pharmacia)

Assays:
[1] = test system: ER; assay: CAT reporter transactivation by ER with TIF2/TIF2.1 coexpression; format: cell-based; conditions: HeLa, Cos-1 cells
Method: (b) HeLa cells were cotransfected with 5 μg Vit-tk-CAT and the indicated amount of HEGO, with or without 5 μg TIF2.1 in the presence of […] E2 or OHT. CAT activity is given relative to that induced by 100 ng HEGO in presence of E2.
(d) HeLa (lanes 1-12) or Cos-1 lanes 13-18) cells were transfected with 5 fig GRE-TATA-CAT (lanes 1-6) or 1 μg MMTV-CAT (lanes 7-18) together with 1 μg hPR with or without 3 μg TIF 2 in presence or absence of […] of the indicated ligand. • (e) Cos-1 cells were cotransfected with 1 μg Vit-tk-CAT and 1 μg HEGO with or without 3 μg TIF2 in presence or absence of 10^−6 M of the indicated ligands.
TIF2-stimulation is to some extent affected by the promoter environment of the responsive gene, as the TIF2 effect on PR/5020-induced transactivation was greater for a complex (MMTV) than for a minimal (GRE-TATA) promoter, although the latter was also reproducibly stimulated (FIG. 5d).

[2] = test system: ER, RARα and RXRα LBDs; assay: GST pull-down of TIF2 polypeptides with NR LBDs; format: binding; conditions: in vitro, with or without 10^−6 M ligand
Method: (b) Mapping of the nuclear receptor-interacting domain of TIF2.
(c-d) Interaction of TIF2 NID mutants with NRs in vitro. […] For quantification of point mutant interactions, see below.
(e-f) Effect of TIF2 NID point mutations on stimulation of NR AF-2 activity. Cos-1 cells were cotransfected with 1 μg of the (17m)5-TATA-CAT reporter, 0.2 μg of GAL-hERα(EF) or GAL-mRXRα(DE), and 2.5 μg of the TIF2.1 wildtype or mutated fragments, as indicated. […] Each bar represents the mean value obtained from at least three (interaction) or at least four (transactivation) experiments, respectively; standard deviations are indicated. Note that the absolute values for TIF2.1 wildtype activity varied by ±16% when cotransfected with GAL-hERα(EF) and by ±34% when cotransfected with GAL-mRXRα(DE). In the in-vitro-interaction assays, the affinity of the TIF2.1 wildtype standard varied by less than ±25%. Expression levels of TIF2 mutants in the cells were verified by Western blot (not shown) with mouse monoclonal antibody 3Ti3F1, which is directed against an epitope outside the mutated area.
To further delineate the TIF2 NR interaction domain (NID), we studied the interaction between a series of TIF2 deletion mutants and the ER or RARα LBDs, using GST-fusion protein-based in vitro assays. In both cases, an NWD was mapped to the central region of TIF2 (amino acids 624-869 in mutant TIF2.5; see FIGS. 7a and b). No additional NWD could be identified in the N- or C-termini of TIF2 (FIGS. 7a and b; mutants TIF2.0, TIF2.2 and TIF2.7). Note that, in contrast, SRC-1, a paralogue of TIF2, apparently harbours two distinct non-contiguous NIDs located in the central and C-terminal regions (Onate, S. A. et al., Science 270:1354-1357 (1995), Yao, T. P. et al., Proc. Natl. Acad. Sci. USA 93:10626-10631 (1996); Zhu, Y. et al., Gene Epression 6:185-195 (1996)).

[3] = biological target: B3; assay: GST pull-down with 35S in-vitro-translated TIF2 polypeptides (FIG. 7a-b)
[4] = biological target: B2; assay: as above
[5] = test system: GAL4 reporter; assay: GAL4 DBD-TIF2 fusion CAT reporter transactivation assay; format: cell-based
Method: (a) HeLa cells were cotransfected with 1 μg (17m)5-βG-CAT and 10 μg GAL(1-147) or 1,3 and 10 μg GAL(1-147)-TIF2.1, respectively.
(c) Analysis of the transcriptional activity of GAL-TIF2 fusion proteins. Cos-1 and HeLa cells were transfected with 3 lag of plasmids expressing different regions of TIF2 fised to the DNA-binding domain of the yeast transcription factor GALA together with 1 μg of the (7m)5-G-CAT reporterplasmid. CAT assays were performed as described (Bocquel, M. T. et al., Nucl Acids Res. 17:2581-2595 (1989)). Quantitative data on CAT reporter expression were obtained either by phosphoimager analysis (BAS2000, Fuji) of ^14C-labeled CAT reaction products separated by thin-layer chromatography, or using the CAT ELISA Kit (Boehringer Mannheim). In all cases, CAT activities were normalized to the β-galactosidase concentrations resulting from cotransfection of 1 μg of pCMVPGal (gift from T. Lerouge) as internal control. Fold inductions above the GAL4 DBD value are indicated. The mean and standard deviation of at least three experiments are shown. A representative Western blot, illustrating the expression levels of the GAL4-TIF2 fusion proteins, expressed from 10 μg of the corresponding expression vectors, is shown on the left.
(b) Transcriptional activation of TIF2 AF-1 mutants. Cos-1 and HeLa cells were cotransfected with 3 μg of plasmids expressing different mutants of the TIF2 AF-1 fused to the DNA-binding domain of the yeast transcription factor GAL4 together with 1 μg of the (17m)5-G-CAT reporter plasmid. Fold inductions above the activation seen with the GAL4 DBD alone are indicated. The values represent the mean of at least three experiments.
(a) Transcriptional activation by TIF2.13 and TIF2.13 mutants. Cos-1 and HeLa cells were cotransfected with 3 μg of plasmids expressing the TIF2.13 region and the indicated TIF2.13 mutants fused to the DNA-binding domain of the yeast transcription factor GALA together with 1 μg of the (17m)5-G-CAT reporter plasmid. Fold inductions above the GAL4 DBD 1-fold value are indicated. The mean and standard deviation obtained from at least four experiments are shown. The expression levels of the GAL4-TIF2.13 fusion proteins were confirmed by western blotting (data not shown).
Transient transfections of HeLa and Cos-1 cells were performed as described (Gronemeyer et al., (1987); Bocquel, M. T. et al., Nucl. Acids Res. 17:2581-2595 (1989)).

[6] = biological target: T1, TIF2.1 (TIF2 amino acids 624 to 1287) (human, UniProt Q15596 624-1287); assay: Far-Western blot with 32P-labelled NR LBD probe, agonist present
T1 construct: Form without a stated tag: expression-library clone, expressed in Cos cells from pSG5, or in-vitro-translated; also called cytoplasmic TIF2.1 polypeptide
T1 sequence: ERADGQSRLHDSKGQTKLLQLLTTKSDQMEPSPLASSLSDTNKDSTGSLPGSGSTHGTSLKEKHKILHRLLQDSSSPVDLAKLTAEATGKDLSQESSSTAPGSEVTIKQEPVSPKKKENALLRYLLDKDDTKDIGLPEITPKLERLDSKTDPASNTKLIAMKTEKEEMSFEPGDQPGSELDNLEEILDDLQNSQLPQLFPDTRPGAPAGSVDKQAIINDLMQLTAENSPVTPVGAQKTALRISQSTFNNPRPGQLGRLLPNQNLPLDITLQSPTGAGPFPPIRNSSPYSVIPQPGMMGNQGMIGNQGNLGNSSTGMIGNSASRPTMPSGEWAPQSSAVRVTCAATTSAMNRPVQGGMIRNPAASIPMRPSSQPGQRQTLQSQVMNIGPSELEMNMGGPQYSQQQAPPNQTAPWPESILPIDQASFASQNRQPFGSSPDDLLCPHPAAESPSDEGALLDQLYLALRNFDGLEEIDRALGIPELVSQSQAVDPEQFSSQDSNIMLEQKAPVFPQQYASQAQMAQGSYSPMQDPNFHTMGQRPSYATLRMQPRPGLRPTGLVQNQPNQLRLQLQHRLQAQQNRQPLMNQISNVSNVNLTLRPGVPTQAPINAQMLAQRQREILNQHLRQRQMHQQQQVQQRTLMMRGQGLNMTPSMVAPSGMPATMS

[7] = biological target: T2, (His)6-TIF2.1, E. coli-expressed purified recombinant TIF2.1 (human, UniProt Q15596 624-1287); assay: GST interaction assay with E. coli-expressed TIF2.1, Western blot, agonist present
T2 construct: also called His-tagged TIF2.1; purified TIF2.1 protein; not shown: (His)6 tag of pET15b
T2 sequence: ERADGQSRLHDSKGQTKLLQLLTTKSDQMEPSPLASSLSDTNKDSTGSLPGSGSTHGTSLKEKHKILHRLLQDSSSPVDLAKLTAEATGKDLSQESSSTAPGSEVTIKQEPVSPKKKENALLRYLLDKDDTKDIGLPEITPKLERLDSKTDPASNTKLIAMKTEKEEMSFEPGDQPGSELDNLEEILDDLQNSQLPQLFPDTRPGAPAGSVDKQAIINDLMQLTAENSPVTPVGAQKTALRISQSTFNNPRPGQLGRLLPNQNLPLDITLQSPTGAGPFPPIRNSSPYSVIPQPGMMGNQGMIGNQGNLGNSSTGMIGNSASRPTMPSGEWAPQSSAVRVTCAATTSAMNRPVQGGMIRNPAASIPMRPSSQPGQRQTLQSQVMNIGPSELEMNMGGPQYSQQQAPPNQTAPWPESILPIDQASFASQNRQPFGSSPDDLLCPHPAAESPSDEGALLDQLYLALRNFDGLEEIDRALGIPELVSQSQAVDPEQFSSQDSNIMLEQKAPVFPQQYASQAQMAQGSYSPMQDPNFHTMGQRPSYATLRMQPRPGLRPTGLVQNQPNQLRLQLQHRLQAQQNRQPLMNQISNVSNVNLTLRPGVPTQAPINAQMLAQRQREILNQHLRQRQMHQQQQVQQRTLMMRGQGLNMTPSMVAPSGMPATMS

[8] = biological target: T3, transcriptional intermediary factor-2 (TIF2) (human, UniProt Q15596 1-1464); assay: Far-Western blot with E2-bound 32P-GST-ER(DEF)
T3 construct: Full length: endogenous protein of cell extracts (HeLa, MCF-7 and others), protein from transfected Cos-1 cells, or in-vitro-translated; also called 160-kDa protein
T3 sequence (Q15596 whole entry P1420S): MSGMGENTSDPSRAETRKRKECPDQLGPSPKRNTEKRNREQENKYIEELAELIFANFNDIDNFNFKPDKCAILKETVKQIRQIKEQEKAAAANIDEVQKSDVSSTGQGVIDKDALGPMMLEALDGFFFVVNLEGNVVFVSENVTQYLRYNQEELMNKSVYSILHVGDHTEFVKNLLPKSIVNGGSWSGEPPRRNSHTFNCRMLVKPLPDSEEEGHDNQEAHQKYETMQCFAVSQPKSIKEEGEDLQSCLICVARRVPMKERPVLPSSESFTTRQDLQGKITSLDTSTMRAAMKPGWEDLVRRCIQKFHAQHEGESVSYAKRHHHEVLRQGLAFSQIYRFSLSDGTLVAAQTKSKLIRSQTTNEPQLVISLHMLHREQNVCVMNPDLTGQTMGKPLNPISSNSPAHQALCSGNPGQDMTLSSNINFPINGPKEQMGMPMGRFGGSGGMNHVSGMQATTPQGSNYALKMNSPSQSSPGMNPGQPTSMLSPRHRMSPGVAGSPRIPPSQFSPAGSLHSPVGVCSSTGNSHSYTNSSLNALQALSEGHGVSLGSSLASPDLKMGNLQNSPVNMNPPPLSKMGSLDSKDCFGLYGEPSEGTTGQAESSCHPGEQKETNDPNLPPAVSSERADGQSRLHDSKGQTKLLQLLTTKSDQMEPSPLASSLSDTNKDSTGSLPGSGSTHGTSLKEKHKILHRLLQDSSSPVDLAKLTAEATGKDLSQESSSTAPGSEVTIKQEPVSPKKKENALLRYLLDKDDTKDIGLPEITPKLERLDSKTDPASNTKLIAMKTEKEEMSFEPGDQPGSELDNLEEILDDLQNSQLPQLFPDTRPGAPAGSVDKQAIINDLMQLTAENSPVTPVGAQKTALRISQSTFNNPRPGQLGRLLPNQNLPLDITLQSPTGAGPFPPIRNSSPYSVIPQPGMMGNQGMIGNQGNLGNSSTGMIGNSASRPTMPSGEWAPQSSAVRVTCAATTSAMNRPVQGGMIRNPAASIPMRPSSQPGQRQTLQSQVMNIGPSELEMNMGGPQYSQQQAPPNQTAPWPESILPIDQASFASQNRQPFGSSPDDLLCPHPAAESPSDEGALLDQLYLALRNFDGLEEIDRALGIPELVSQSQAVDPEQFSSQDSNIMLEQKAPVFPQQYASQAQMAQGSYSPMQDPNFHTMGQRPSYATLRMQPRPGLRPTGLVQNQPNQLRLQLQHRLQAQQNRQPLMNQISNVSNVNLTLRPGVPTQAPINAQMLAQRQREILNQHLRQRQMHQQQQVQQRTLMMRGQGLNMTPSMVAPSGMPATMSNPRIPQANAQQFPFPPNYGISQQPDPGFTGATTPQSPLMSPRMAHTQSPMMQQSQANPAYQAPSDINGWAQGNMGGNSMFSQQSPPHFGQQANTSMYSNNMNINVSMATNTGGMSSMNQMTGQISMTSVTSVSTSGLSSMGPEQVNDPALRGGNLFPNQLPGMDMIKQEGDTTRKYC

## CC/C(=C(\c1ccc(O)cc1)c1ccc(OCCN(C)C)cc1)c1ccccc1 [hydroxytamoxifen]
[1]
  stimulation by TIF2.1 of transactivation by antagonist-bound ER: did not lead to any stimulation

B1: TIF2.8 (TIF2 amino acids 1010-1179) (other)
chain: GPSELEMNMGGPQYSQQQAPPNQTAPWPESILPIDQASFASQNRQPFGSSPDDLLCPHPAAESPSDEGALLDQLYLALRNFDGLEEIDRALGIPELVSQSQAVDPEQFSSQDSNIMLEQKAPVFPQQYASQAQMAQGSYSPMQDPNFHTMGQRPSYATLRMQPRPGLRPT
notes: In-vitro-translated; also called minimal AD1
[2]
  binding to NRs (ER, RARα LBDs): cannot bind NRs
[3]
  binding result: no binding
[4]
  binding result: no binding
[5]; Cos-1 and/or HeLa cells
  transcriptional activation of GAL4 reporter by GAL4 DBD fusion: able to activate transcription
[5]; Cos-1 cells
  increased transactivation relative to parent fragment: 2 fold
[5]; HeLa cells
  increased transactivation relative to parent fragment: 10 fold

## B2
[6]
  binding result: binds
[7]
  binding result: binds

## B3
[8]
  binding result: binds
[6]
  binding result: binds

— patent US6861508B2, “Transcriptional intermediary factor-2” (Institut National de la Sante et de la Recherche Medicale, priority 1996, dated 2005)
